# Literature values in PMC5989558.
# Target: CD80 (Homo sapiens) (UniProt P33681)
# Sequence of UniProt P33681 (P33681 35-242): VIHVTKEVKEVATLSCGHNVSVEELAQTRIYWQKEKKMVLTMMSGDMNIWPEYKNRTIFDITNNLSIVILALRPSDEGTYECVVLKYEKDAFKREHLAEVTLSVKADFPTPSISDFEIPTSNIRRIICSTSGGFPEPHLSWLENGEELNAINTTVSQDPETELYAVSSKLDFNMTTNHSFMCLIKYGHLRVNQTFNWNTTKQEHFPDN
substance,measurement,value
CD28 (from UniProt P10747),Kd,20 µM
